Results on one molecule are retold here after CN112574305A (UNIV TSINGHUA RES INST SHENZHEN, dated 2021).

Experiment [1] addresses T1, ProBDNF.
T1 sequence (peptide): CDQKVRPNEENNKDA
The experiment in a line: ELISA, OD450.

The target in experiment [2] is T2, mBDNF (UniProt P23560 129-247, limits assumed).
T2 construct: mature; also called 成熟BDNF
T2 sequence (looked up): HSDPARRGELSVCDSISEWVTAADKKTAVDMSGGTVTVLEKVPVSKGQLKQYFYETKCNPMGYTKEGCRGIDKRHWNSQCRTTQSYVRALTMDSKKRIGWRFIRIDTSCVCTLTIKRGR
Description: ELISA, mBDNF coated at 2 μg/ml, purified antibody added, OD450.

B1: 抗ProBDNF抗体 (antibody, IgG2b, V domains shown)
VH: QVQLQQSGPELVKPGASVTISCKTSAYGFSSSWMNWVKQRPGQGLEWIGRIYPGDGETNYNGKFMGKATLTADKSSNTVYMHLSSLTSVDSAVYFCTRRELVYWGQGTLVTVSA
VL: DIVLTQSPASLAVSLGQRATISCRTSESVDTYGNSFIHWYQQKPGQPPKLLIYRASRLESGIPARFSGSGSRTDFTLTINPVEADDVATYYCQQSYEDPWTFGGGTKLEIK
notes: Mouse hybridoma antibody, made recombinantly in 293 cells; also called 针对前体脑源性神经营养因子的抗体; 实施例2提供的纯化抗体
In turn, B1 yielded a 抗原浓度 (lowest antigen concentration detected) in experiment [1] of 1.95 ng/mL. The binding result in experiment [2] is “no binding”.
